Assay results: the DeepSol protein solubility set

experiment: soluble on expression in E. coli; label from the status in PepcDB or PDB records

Soluble on expression in E. coli, not soluble:
MGSDKIHHHHHHMPEILINKPVEDELVESYLLYSMSVIVGRAIPDVRDGLKPVQRRILYGMYELGLKHNSPTKKSARIVGEVMGKYHPHGDAPVYDALVRMAQPFTMRYPLIEGQGNFGSIDRDPPAAMRYTEARLTRLAEEMLEDIEKNTVNMIDNFDGTLKEPEVLPSKVPNLIINGASGIAVGMATNIPPHNLSETVDALIYLIDHPEATVEELMQFIKGPDFPTGAVVVNASELKKVYEEGRGRIIVRGKVHVEDGKRVKRIVITEIPYGVSKAGLIEQIAKIAKDDESLPIRNIRDESDKRGMRIVIEIPKDANEEVIINNLYKRTALQDYFNVQMLVIDKHKRPRLMNLKGLMEAFLEHRFEVIRRRARYEYEQYTRRAHVVEGLLKAARAIGVVVDIVRNSKDVESARQSLMETLEITEEQAKAILDMRLSRLTSLEIENLQNEYSDLVRKISEVKEILEKDEKVKEIMKKEFLYLKQQYGDPRRTEVTDQSIEYNEEELIVEEDVVITLSHKGYLKSTPLNSYRSQKRGGKGITVSKLSEDDEVEFVVVAKNTSSTLFITNLGRAYVLKNYQLETTGRNTRGRHITAFLNLEDTEKIVALASLNGEGRDLVIATKSGKIKRTALKEFENATSNRGVRAIKIEPGDEIVSARVVNSEKETLIVATKMGMAIRFPVSDVRRMGRNAAGVQAIKLQPGDEVVSVDVIPPGEEGEILTVTEKGFGKRTPVQLYRIQRRGGTGLRNISDVNKTGYVVAVRYVRGDEEIVVVTRNGMMIRFPVSEIGVIGRVTKGVKLIELGDDTISKVAVVKD, MGSDKIHHHHHHMPFITKISTQKKNTERFNIFLDDKYAFSVDADVLVKFELKKGKELDDLDIIEIQYGDEVKKGFNRALDFLSYRMRSTKEVEDHLKKKETSPPVIAEVIHRLNDYKYLNDQEFAAAYVSTHKKTNGKGPDVLFRELRAKGIDDDTIKEALSSFSFEDQTREAVKHVEKLLKKDKKLSTKELKQRAQLQLQRKGFSFDVISAAMDQIEYENDEDTEKEALRLHAEKAFRKYRYDGSYESAMKVKQFLFRKGFSLDLIEQLLQEEEY, MGSDKIHHHHHHMPGSQQSLPLAMVRGQALNSMPVDLFIPPEALEVFLETFEGPLDLLLYLIRKQKLDVVDLPIQQITQQYLLYIEILTEARIELAADYLVMAATLAEIKSRLLLPKMASEDDEEEDPRVVLIRQLKAYEVIKQAAVDIDTLPRIERDVFQASVSAAPDIKPITVPPEVSLVDIARAFGEVLKRIDANEDHHVKREHLSTRERMSQILAKLSSTEYIGFECLFDVSEGRAGVVVSFLALMELVKELLVELVQNEPFSPIYVKAY, MGSDKIHHHHHHMPIDEWLVLNRIGIFENPSLRRYVSPFPPPELMGITSGLQSETGFAAHGADIYAALALASTIPITEYRHILDFGCGCGRLARMLKGHPHKISGCDIDLRHVKWIGQSLDFMNVKLSSVRPPIPFADDEMDAVISVSIFTHLTENSQDDFLAELFRVTRPGGTLFLTVHGAQALKRACHEQPIRHMLDMDEGRFRKAQQAFNQNKHGFVLQFGHLTTKPEKAFYTPRAIFRRIRDSFSRKTINMPFEYGIAFHPESYIREHWSKWFDILDYRHGAIHQFQDIVVLSPKK, MGSDKIHHHHHHMPIKVSPVAGSRFYIGSAPVDVPDTDVTEADFSAVTWIEVGQYETMGNSGDSAQGNTVNLLNRRRTYNWKGSRQAPQRSDNFALNTSDPGQLAMIAAEATDFNYPFKVELNGAPIPKSATAIITIASPGVVTWTGHNLAANTAVKFSTTGALPTGLTAGTSYYVKTVLDADTFTLSATKGGPVIATTGTQSGTHTATTIPSGPQRLFMGQVLAAEEGMGGANNAQMLNCTVLPNTNYVRVAALG, MGSDKIHHHHHHMPLERLNFLGLRNLAALDMRPGPGINLITGANGSGKTSLLEGMHVLGMARSFRTQKLKHAIAHDADAVTLHGRVAGDPPVALGVRRARDASELEIRLDGERGVRVARLAEALPLQLINPDAFRLLEGSPAARREFLDWGVFHVKHEFFEAWRRVRRALKHRNALLRHDRIDARSMRVWEQELAHWSELLDALRSEYMAQFAKAFEDTLHELLPLSGLSLRYYRGWDKQRGLLEVLEGGRDTDRQMGFTQQGPQRADLRLRIGKRAAVEELSRGQQKLVVSALKLAQGRLLDELTGRTCVYLIDDLPAELDVTHRRIFCHWLERLRCQVFITSVEREALANAWQSETDVAMFHVEHGRLLTE, MGSDKIHHHHHHMPLLDIRNLTIELDTPEGTVKVLEKVSLTINPGEIHGLVGESGSGRSLLAKAILGVLGPNWHIIADRMMWDGKNLLEMSSKQRRCLMGSEMAMIFQDPSGSLDPVKTIGSQLIEAMVPNKNIPFWRRGKATYLNAQKWLHKVGIKKPKQLMKCYPWELSEGECQKVMIAMAVANHPKLLIADEPTNSMELNTQAQIFRLLSQLNQLQNVSILLVSHELETMVHWCDNLTILYSGQVMESGPVSEMVAMPYHPYTRALLKNLPDHTEKMRHKANLPTLQGSSPSLQHLPAGCRLGPRCPEAQRQCVKQPNLEHIKDRYFACHFPYQSEQEDDDAIA, MGSDKIHHHHHHMPLLIDIRKLTLITRLIQDGAEQVADSLATLAGVDAAVEIKSLSFVQPEDIATEMGGGTIYSARVRLTEPPYGVFLMTFETETAAEIAELMTGSSVEDGFTQLHESALQEMCNILTSGFIDGIANTLNATINMGTPTVVQDDATEIADKALSHVRRDSLTIVLDSLVDIKESDVAFSLRIFLIPDPGSFVHLIDQLDYDTDRETHISADTDAVKELDMSGDADALDAFDSSK, MGSDKIHHHHHHMPLTRERTDMSNLLSISDLSITFDNGPRVVDGLSFSIDKGQTLALVGESGSGKSVSALSILRLLDERHAAYPAGHILYKGEDLLQAQEKRLRQIRGRHISMIFQEPMTSLNPLHTVEKQISETLELHKGMRGPQARKRCLELLELVGIPAPETRLKSYPHQLSGGQKQRVMIAMALANEPDLLIADEPTTALDVTVQKQVLELLKSLQQKLGMAVLLITHDLSIVRRYADYVVVMERGKMVEQGATETLFRSPSHTYTRKLIDAEPPEHPLPAANGTETLMTVDNVNVHFPIRKTMLGKVKESFHAVQDASFELRAGETLGIVGESGSGKTTLGHALLKLTPSTGTFSLCGTELSALSQKAFRPWRRRVQIVFQDPFGSLSPRMSVEEIIREGLEIHEPGSSGQHEARVIQALKDVGLDPDARHRYPHEFSGGQRQRIAIARALVLQPDLMILDEPTSALDRTVQKQVIELLREIQARYRLSYIFISHDLAVVRALSHKLLVLRQGRIVEYGDAETIFREPQQPYTRELLNAAFFYQSTTN, MGSDKIHHHHHHMPMRKEQQSRPDLRVLKSLMVCATIAASLILHSPSLMAAEEATGATSTAPSACSINPSEKLKNLFTEVKQYLGIRYRFGGDTPSGFDCSGFVRFMFNKEFNVNLPRSSREMATIGTRIDRNELRPGDLVFFKNAEDRINHVGIFVGNDTFVHSSLSKGITRDTLNESYYSKRFATGVRILDIQGNRIPDDFNNLFDESNNGNSPS, MGSDKIHHHHHHMPQDTISVSLLDSRIQASRPNYYNPLLVYKTAKIKVNKDAASYKILNLTVNNYEKQIETLEKENGNGEDQFGKEKTLLKTAMSNFFNSSEESLKSADLFIYKDKPEELKNYLKVHRHTFVVLINTEGDASDDGLKIYKDDYNKFKKPSTFFVFSTKEQEIKELFKDKGNTEKERNIAVYSNNKDNLHLKFISQYLHQASIFHAVNPYGMPLAATPLVDDTVIGKLRTAKINFYSLLNETGLDGVPAFKEGVDLAGGAIDEQFTYHYIKNEAIIELIRIWNKNNRQNSKLSALQLSGARDNAYTSAIECLLKRFVDRGLIIEYKNLRLTLSPTPQLKLELSVNITYNFSINAVALVITTQDIVDYQNSLSA, MGSDKIHHHHHHMPRPRRSQVSVEDTPMYHCCSRVVRRAYLCGDDKFSGKNYDHRRGWVEAQLLKLAEVFAIDVAAYAVMSNHLHVVLSIDIYQANRWTGIEVINQWHLLFKGTDITQKFAKGETLEDYEALELTYTIALYRSRLSDISWFMRALNEPIARRANEEDECTGRFWEGRFKSQALLDEAAVLACMVYVDLNPIRSTIAKTPETSDFTSIKRRITAALNGTQPKALLPFVGNERKDMPKGLTFHLKDYLQLVEDTGKAVRNDKRGCISPNSHSILNRLNIPADNWLKIINEFGKLFKGPVGTLQELTAYCEHLEKQRRHYCHACQHLAAS
